Experimental data taken from patent publication US20260055205A1 (published 2026).
Changes are numbered by the printed parent chain. In names and notes the source's numbering stands. Where two headings read alike, the source gives them in different places. Each block holds one binder with its values, some of them ahead of it.

What was measured:
human CD3 epsilon [1] = target: T1, human CD3 epsilon (human, UniProt P07766 23-126, limits assumed); experiment: Octet, crude lysate
T1 construct: also called huCD3e
T1 sequence (P07766 23-126 limits assumed): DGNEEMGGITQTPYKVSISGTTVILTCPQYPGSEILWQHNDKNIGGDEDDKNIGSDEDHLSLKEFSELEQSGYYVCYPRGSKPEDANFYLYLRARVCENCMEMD
Description: To achieve this, Pool 1 was created, which included 74 paTCE molecules, each containing PSMA.5 and one of the 74 CD3.23 mutation variants. Single mutations were chosen based on analyses including CD3.23 PTE score analysis (using internal PTE algorithm v12) and structural analysis. Structural considerations included: possible contact disruption, anticipated steric clashes, side chain charge maintenance and possible pockets filling. Stability and affinity of the individually expressed molecules in the form of crude lysate was evaluated by Octet (ForteBio).

human CD3 epsilon [2] = target: T1, human CD3 epsilon; experiment: Octet, crude lysate; remark: listed apart in the source
Outline: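 Octet binding of the anti-CD3 paTCE molecules was measured to cynomolgus CD3e-Fc with purified material and to human CD3 epsilon with crude lysate. Every variant carried PSMA.262 except CD3.23, which carried PSMA.5.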

B1: CD3.56 (bispecific antibody, V domains shown)
VH: EVQLLESGGGIVQPGGSLKLSCAASGFTFNTYAMNWVRQAPGKGLEWVARTRSKYNNYATYYADSVKDRFTISRDDSKNTVYLQMNNLKTEDTAVYYCVRHENFGNSYVSWFAHWGQGTLVTVSS
VL: ELVVTQEPSLTVSPGGTVTLTCRSSNGAVTSSNYANWVQQKPGQAPRGLIGGTNKRAPGTPARFSGSLLGGKAALTLSGVQPEDEAVYYCALWYPNLWVFGGGTKLTVL
notes: paTCE with PSMA.5; also called AC3385; I51T
- Kd (human CD3 epsilon [1]): 425 nM

B2: CD3.75 (bispecific antibody, V domains shown)
VH: B1 VH with T51I, Y55W
VL: B1 VL
notes: paTCE with PSMA.5; also called AC3404; Y52cW
- Kd (human CD3 epsilon [1]): 10.5 nM

B4: CD3.70 (bispecific antibody, V domains shown)
VH: B1 VH with T51I, Y55R
VL: B1 VL
notes: paTCE with PSMA.5; also called AC3399; Y52cR
- Kd (human CD3 epsilon [1]): 3.8 nM

B6: CD3.73 (bispecific antibody, V domains shown)
VH: B1 VH with T51I, Y55P
VL: B1 VL
notes: paTCE with PSMA.5; also called AC3402; Y52cP
- Kd (human CD3 epsilon [1]): 33.1 nM

B7: CD3.71 (bispecific antibody, V domains shown)
VH: B1 VH with T51I, Y55G
VL: B1 VL
notes: paTCE with PSMA.5; also called AC3400; Y52cG
- Kd (human CD3 epsilon [1]): 20.1 nM

B8: CD3.78 (bispecific antibody, V domains shown)
VH: B1 VH with T51I, N57D
VL: B1 VL
notes: paTCE with PSMA.5; also called AC3407; N54D
- Kd (human CD3 epsilon [1]): 7.4 nM

B9: CD3.82 (bispecific antibody, V domains shown)
VH: B1 VH with T51I, Y58W
VL: B1 VL
notes: paTCE with PSMA.5; also called AC3411; Y55W
- Kd (human CD3 epsilon [1]): 7.8 nM

B12: CD3.83 (bispecific antibody, V domains shown)
VH: B1 VH with T51I, A59G
VL: B1 VL
notes: paTCE with PSMA.5; also called AC3412; A56G
- Kd (human CD3 epsilon [1]): 8.2 nM

B13: CD3.67 (bispecific antibody, V domains shown)
VH: B1 VH with T51I, S53T
VL: B1 VL
notes: paTCE with PSMA.5; also called AC3396; S52aT
- Kd (human CD3 epsilon [1]): 4.8 nM

B16: CD3.68 (bispecific antibody, V domains shown)
VH: B1 VH with T51I, K54P
VL: B1 VL
notes: paTCE with PSMA.5; also called AC3397; K52bP
- Kd (human CD3 epsilon [1]): 51 nM

B17: CD3.60 (bispecific antibody, V domains shown)
VH: B1 VH with T51I, R52Q
VL: B1 VL
notes: paTCE with PSMA.5; also called AC3389; R52Q
- Kd (human CD3 epsilon [1]): 434 nM

B18: CD3.74 (bispecific antibody, V domains shown)
VH: B1 VH with T51I, Y55T
VL: B1 VL
notes: paTCE with PSMA.5; also called AC3403; Y52cT
- Kd (human CD3 epsilon [1]): 11.1 nM

B20: CD3.84 (bispecific antibody, V domains shown)
VH: B1 VH with T51I, A59T
VL: B1 VL
notes: paTCE with PSMA.5; also called AC3413; A56T
- Kd (human CD3 epsilon [1]): 10.7 nM

B21: CD3.79 (bispecific antibody, V domains shown)
VH: B1 VH with T51I, N57E
VL: B1 VL
notes: paTCE with PSMA.5; also called AC3408; N54E
- Kd (human CD3 epsilon [1]): 8.3 nM

B23: CD3.81 (bispecific antibody, V domains shown)
VH: B1 VH with T51I, Y58F
VL: B1 VL
notes: paTCE with PSMA.5; also called AC3410; Y55F
- Kd (human CD3 epsilon [1]): 6.1 nM

B31: CD3.72 (bispecific antibody, V domains shown)
VH: B1 VH with T51I, Y55K
VL: B1 VL
notes: paTCE with PSMA.5; also called AC3401; Y52cK
- Kd (human CD3 epsilon [1]): 5.1 nM

B33: CD3.69 (bispecific antibody, V domains shown)
VH: B1 VH with T51I, Y55A
VL: B1 VL
notes: paTCE with PSMA.5; also called AC3398; Y52cA
- Kd (human CD3 epsilon [1]): 11.5 nM

B35: CD3.77 (bispecific antibody, V domains shown)
VH: B1 VH with T51I, N56E
VL: B1 VL
notes: paTCE with PSMA.5; also called AC3406; N53E
- Kd (human CD3 epsilon [1]): 575 nM

B42: CD3.80 (bispecific antibody, V domains shown)
VH: B1 VH with T51I, Y58G
VL: B1 VL
notes: paTCE with PSMA.5; also called AC3409; Y55G
- Kd (human CD3 epsilon [1]): 11.3 nM

Results, then the binder that gave them:

- Kd (human CD3 epsilon [1]): 8.3 nM
B3: CD3.91 (bispecific antibody, V domains shown)
VH: B1 VH with T51I, Y62G
VL: B1 VL
notes: paTCE with PSMA.5; also called AC3420; Y59G

- Kd (human CD3 epsilon [1]): 9.6 nM
B5: CD3.98 (bispecific antibody, V domains shown)
VH: B1 VH with T51I, Y82S
VL: B1 VL
notes: paTCE with PSMA.5; also called AC3427; Y79S

- Kd (human CD3 epsilon [1]): 63.2 nM
B10: CD3.88 (bispecific antibody, V domains shown)
VH: B1 VH with T51I, Y62D
VL: B1 VL
notes: paTCE with PSMA.5; also called AC3417; Y59D

- Kd (human CD3 epsilon [1]): 8.3 nM
B11: CD3.109 (bispecific antibody, V domains shown)
VH: B1 VH with T51I
VL: B1 VL with L68N
notes: paTCE with PSMA.5; also called AC3438; L66N

- Kd (human CD3 epsilon [1]): 183 nM
B14: CD3.86 (bispecific antibody, V domains shown)
VH: B1 VH with T51I, Y61E
VL: B1 VL
notes: paTCE with PSMA.5; also called AC3415; Y58E

- Kd (human CD3 epsilon [1]): 5.2 nM
B15: CD3.102 (bispecific antibody, V domains shown)
VH: B1 VH with T51I, N87Y
VL: B1 VL
notes: paTCE with PSMA.5; also called AC3431; N82bY

- Kd (human CD3 epsilon [1]): 7.3 nM
B19: CD3.107 (bispecific antibody, V domains shown)
VH: B1 VH with T51I
VL: B1 VL with L68S
notes: paTCE with PSMA.5; also called AC3436; L66S

- Kd (human CD3 epsilon [1]): 4.8 nM
B22: CD3.101 (bispecific antibody, V domains shown)
VH: B1 VH with T51I, N87S
VL: B1 VL
notes: paTCE with PSMA.5; also called AC3430; N82bS

- Kd (human CD3 epsilon [1]): 17.9 nM
B24: CD3.87 (bispecific antibody, V domains shown)
VH: B1 VH with T51I, Y61T
VL: B1 VL
notes: paTCE with PSMA.5; also called AC3416; Y58T

- Kd (human CD3 epsilon [1]): 3.2 nM
B25: CD3.108 (bispecific antibody, V domains shown)
VH: B1 VH with T51I
VL: B1 VL with L68K
notes: paTCE with PSMA.5; also called AC3437; L66K

- Kd (human CD3 epsilon [1]): 9.8 nM
B26: CD3.96 (bispecific antibody, V domains shown)
VH: B1 VH with T51I, Y82D
VL: B1 VL
notes: paTCE with PSMA.5; also called AC3425; Y79D

- Kd (human CD3 epsilon [1]): 5.9 nM
B27: CD3.99 (bispecific antibody, V domains shown)
VH: B1 VH with T51I, N87E
VL: B1 VL
notes: paTCE with PSMA.5; also called AC3428; N82bE

- Kd (human CD3 epsilon [1]): 8.9 nM
B28: CD3.110 (bispecific antibody, V domains shown)
VH: B1 VH with T51I
VL: B1 VL with L68T
notes: paTCE with PSMA.5; also called AC3439; L66T

- Kd (human CD3 epsilon [1]): 7.2 nM
B29: CD3.90 (bispecific antibody, V domains shown)
VH: B1 VH with T51I, Y62Q
VL: B1 VL
notes: paTCE with PSMA.5; also called AC3419; Y59Q

- Kd (human CD3 epsilon [1]): 9.7 nM
B30: CD3.89 (bispecific antibody, V domains shown)
VH: B1 VH with T51I, Y62E
VL: B1 VL
notes: paTCE with PSMA.5; also called AC3418; Y59E

- Kd (human CD3 epsilon [1]): 6.1 nM
B32: CD3.106 (bispecific antibody, V domains shown)
VH: B1 VH with T51I
VL: B1 VL with L69D
notes: paTCE with PSMA.5; also called AC3435; L67D

- Kd (human CD3 epsilon [1]): 4.9 nM
B34: CD3.105 (bispecific antibody, V domains shown)
VH: B1 VH with T51I
VL: B1 VL with G70E
notes: paTCE with PSMA.5; also called AC3434; G68E

- Kd (human CD3 epsilon [1]): 8.2 nM
B36: CD3.94 (bispecific antibody, V domains shown)
VH: B1 VH with T51I, A63P
VL: B1 VL
notes: paTCE with PSMA.5; also called AC3423; A60P

- Kd (human CD3 epsilon [1]): 11.4 nM
- Kd (human CD3 epsilon [2]): 13.5 nM
B37: CD3.103 (bispecific antibody, V domains shown)
VH: B1 VH with A49G, T51I, Y58G, D68G, N87S
VL: B1 VL
notes: paTCE with PSMA.5; also called AC3432; A49G, Y52cG, D65G, N82bS

- Kd (human CD3 epsilon [1]): 8 nM
B38: CD3.93 (bispecific antibody, V domains shown)
VH: B1 VH with T51I, A63K
VL: B1 VL
notes: paTCE with PSMA.5; also called AC3422; A60K

- Kd (human CD3 epsilon [1]): 4.6 nM
B39: CD3.104 (bispecific antibody, V domains shown)
VH: B1 VH with T51I
VL: B1 VL with L69Q
notes: paTCE with PSMA.5; also called AC3433; L67Q

- Kd (human CD3 epsilon [1]): 5.4 nM
B40: CD3.95 (bispecific antibody, V domains shown)
VH: B1 VH with T51I, D68G
VL: B1 VL
notes: paTCE with PSMA.5; also called AC3424; D65G

- Kd (human CD3 epsilon [1]): 121 nM
B41: CD3.97 (bispecific antibody, V domains shown)
VH: B1 VH with T51I, Y82G
VL: B1 VL
notes: paTCE with PSMA.5; also called AC3426; Y79G

- Kd (human CD3 epsilon [1]): 939 nM
B43: CD3.85 (bispecific antibody, V domains shown)
VH: B1 VH with T51I, Y61D
VL: B1 VL
notes: paTCE with PSMA.5; also called AC3414; Y58D

- Kd (human CD3 epsilon [1]): 7.1 nM
B44: CD3.100 (bispecific antibody, V domains shown)
VH: B1 VH with T51I, N87Q
VL: B1 VL
notes: paTCE with PSMA.5; also called AC3429; N82bQ

- Kd (human CD3 epsilon [1]): 37.2 nM
B45: CD3.92 (bispecific antibody, V domains shown)
VH: B1 VH with T51I, Y62W
VL: B1 VL
notes: paTCE with PSMA.5; also called AC3421; Y59W
